# In the supplement of paper PMC9112550, “Optimization of the antimicrobial peptide Bac7 by deep mutational scanning” (BMC Biology, 2022):
# Test system: Escherichia coli TOP10
# Test: shrunken log2 fold change of peptide-encoding DNA abundance (4.5 h post-induction vs induction); higher = less antimicrobial activity (less host growth inhibition)
# Conditions: time post-induction: 4.5 h; library: site-saturation at positions 5, 18, 19, 20
# 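Further: peptides expressed intracellularly from a pBAD plasmid library in pooled LB shake-flask culture, induced with 0.3% L-arabinose, DNA abundance read by NGS, three biological replicates, DESeq2 with apeglm shrinkage.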
row,Sequence,shrunken log2 fold change
1,RRIRFRPPRLPRPRPRPPNGPRP,-0.0591
2,RRIRFRPPRLPRPRPRPPPGPRP,1.34
3,RRIRFRPPRLPRPRPRPPPVPRP,1.43
4,RRIRFRPPRLPRPRPRPPQWPRP,0.384
5,RRIRFRPPRLPRPRPRPPRAPRP,0.92
6,RRIRFRPPRLPRPRPRPPRCPRP,0.612
7,RRIRFRPPRLPRPRPRPPRTPRP,0.579
8,RRIRFRPPRLPRPRPRPPSCPRP,0.337
9,RRIRFRPPRLPRPRPRPPSQPRP,-0.0751
10,RRIRFRPPRLPRPRPRPPTNPRP,0.236
11,RRIRFRPPRLPRPRPRPPVYPRP,-0.124
12,RRIRFRPPRLPRPRPRPPYMPRP,-0.43
13,RRIRFRPPRLPRPRPRPPYYPRP,-0.464
14,RRIRFRPPRLPRPRPRPQAIPRP,0.043
15,RRIRFRPPRLPRPRPRPQDIPRP,-0.0714
16,RRIRFRPPRLPRPRPRPQDLPRP,-0.0337
17,RRIRFRPPRLPRPRPRPQDSPRP,-0.113
18,RRIRFRPPRLPRPRPRPQFGPRP,-0.0484
19,RRIRFRPPRLPRPRPRPQGQPRP,-0.103
20,RRIRFRPPRLPRPRPRPQGRPRP,0.19
21,RRIRFRPPRLPRPRPRPQHGPRP,-0.126
22,RRIRFRPPRLPRPRPRPQKDPRP,-0.376
23,RRIRFRPPRLPRPRPRPQLLPRP,0.0217
24,RRIRFRPPRLPRPRPRPQLRPRP,0.0318
25,RRIRFRPPRLPRPRPRPQMAPRP,0.168

row,Sequence,shrunken log2 fold change
1,RRIRFRPPRLPRPRPRPQNQPRP,-0.485
2,RRIRFRPPRLPRPRPRPQNWPRP,-0.148
3,RRIRFRPPRLPRPRPRPQPDPRP,0.254
4,RRIRFRPPRLPRPRPRPQQRPRP,0.061
5,RRIRFRPPRLPRPRPRPQQSPRP,-0.0219
6,RRIRFRPPRLPRPRPRPQSDPRP,0.0151
7,RRIRFRPPRLPRPRPRPQSYPRP,-0.111
8,RRIRFRPPRLPRPRPRPQVVPRP,-0.152
9,RRIRFRPPRLPRPRPRPQYTPRP,-0.616
10,RRIRFRPPRLPRPRPRPRAHPRP,0.00718
11,RRIRFRPPRLPRPRPRPRCSPRP,0.717
12,RRIRFRPPRLPRPRPRPRECPRP,0.277
13,RRIRFRPPRLPRPRPRPREPPRP,0.208
14,RRIRFRPPRLPRPRPRPRGGPRP,0.9
15,RRIRFRPPRLPRPRPRPRGMPRP,0.2
16,RRIRFRPPRLPRPRPRPRHMPRP,-0.124
17,RRIRFRPPRLPRPRPRPRHRPRP,0.195
18,RRIRFRPPRLPRPRPRPRLQPRP,0.221
19,RRIRFRPPRLPRPRPRPRLWPRP,0.497
20,RRIRFRPPRLPRPRPRPRNHPRP,-0.132
21,RRIRFRPPRLPRPRPRPRQPPRP,0.68
22,RRIRFRPPRLPRPRPRPRTRPRP,0.244
23,RRIRFRPPRLPRPRPRPRVAPRP,0.439
24,RRIRFRPPRLPRPRPRPRWDPRP,0.284
25,RRIRFRPPRLPRPRPRPRWRPRP,0.382

row,Sequence,shrunken log2 fold change
1,RRIRFRPPRLPRPRPRPRWTPRP,1.19
2,RRIRFRPPRLPRPRPRPRYCPRP,-0.647
3,RRIRFRPPRLPRPRPRPRYSPRP,-0.736
4,RRIRFRPPRLPRPRPRPSALPRP,0.0201
5,RRIRFRPPRLPRPRPRPSDTPRP,-0.308
6,RRIRFRPPRLPRPRPRPSEGPRP,0.0716
7,RRIRFRPPRLPRPRPRPSFSPRP,-0.702
8,RRIRFRPPRLPRPRPRPSFYPRP,-0.514
9,RRIRFRPPRLPRPRPRPSGAPRP,0.103
10,RRIRFRPPRLPRPRPRPSGTPRP,-0.0628
11,RRIRFRPPRLPRPRPRPSHRPRP,-0.214
12,RRIRFRPPRLPRPRPRPSIFPRP,-0.579
13,RRIRFRPPRLPRPRPRPSIGPRP,-0.139
14,RRIRFRPPRLPRPRPRPSIKPRP,-0.42
15,RRIRFRPPRLPRPRPRPSIRPRP,-0.288
16,RRIRFRPPRLPRPRPRPSISPRP,-1.18
17,RRIRFRPPRLPRPRPRPSKDPRP,-0.347
18,RRIRFRPPRLPRPRPRPSKYPRP,-0.868
19,RRIRFRPPRLPRPRPRPSMCPRP,-0.714
20,RRIRFRPPRLPRPRPRPSMYPRP,-0.432
21,RRIRFRPPRLPRPRPRPSNCPRP,-0.529
22,RRIRFRPPRLPRPRPRPSNQPRP,0.0631
23,RRIRFRPPRLPRPRPRPSPHPRP,0.0339
24,RRIRFRPPRLPRPRPRPSPMPRP,1.17
25,RRIRFRPPRLPRPRPRPSPNPRP,-0.399
